Experiments:
[1] = target: HLA-DR3 (HLA-DRA*0101 and -DRB1*0301), as expressed in HLA-DR3 transgenic mice (human); assay: cell-based or functional assay
[2] = target: HLA-DR4 (HLA-DRA*0101 and -DRB1*0401), as expressed in HLA-DR4 transgenic mice (human); assay: cell-based or functional assay
[3] = test system: HLA-A2, -A24, -B7, -DR2, -DR3 and -DR4 transgenic mice; type: cell-based; design: key to HLA allele this work (HLA restriction by ELISpot): —represents no positive ELISpot response
[4] = test system: splenocytes of HLA-B7 (B*0702) transgenic mice; type: cell-based; design: key to B7: average IFN-γ spots forming cells per million splenocytes: — represents no positive ELISpot response
[5] = test system: splenocytes of HLA-A24 (A*2402) transgenic mice; type: cell-based; design: key to A24: average IFN-γ spots forming cells per million splenocytes: — represents no positive ELISpot response
[6] = test system: splenocytes of HLA-DR2 (DRB1*1501) transgenic mice; type: cell-based; design: key to DR2: average IFN-γ spots forming cells per million splenocytes: — represents no positive ELISpot response
[7] = test system: splenocytes of HLA-DR3 (DRB1*0301) transgenic mice; type: cell-based; design: key to DR3: average IFN-γ spots forming cells per million splenocytes: — represents no positive ELISpot response
[8] = test system: splenocytes of HLA-DR4 (DRB1*0401) transgenic mice; type: cell-based; design: key: — represents no positive ELISpot response

| Substance | IFN-γ ELISpot at 10 µg/ml peptide, splenocytes of immunized HLA transgenic mice [1] | lowest concentration of peptide giving positive ELISpot response [1] | IFN-γ ELISpot at 10 µg/ml peptide, splenocytes of immunized HLA transgenic mice [2] | lowest concentration of peptide giving positive ELISpot response [2] | further results |
| --- | --- | --- | --- | --- | --- |
| NP 37-53 peptide of influenza virus A/New York/348/2003 (H1N1) | 66 | 1 µg/mL |  |  |  |
| PB1 650-666 peptide of influenza virus A/New York/348/2003 (H1N1) | 142 | 0.1 µg/mL | 41 | 0.1 µg/mL |  |
| PB2 256-272 peptide of influenza virus A/New York/348/2003 (H1N1) | 169 | 0.1 µg/mL |  |  |  |
| PB1 340-356 peptide of influenza virus A/New York/348/2003 (H1N1) | 175 | 0.1 µg/mL |  |  |  |
| LTIERMVLSAFDERRNK |  |  |  |  | HLA allele this work (HLA restriction by ELISpot) [3]: — |
| NP 73-89 peptide of influenza virus A/New York/348/2003 (H1N1) |  |  | 121 | 0.1 µg/mL |  |
| M1 175-191 peptide of influenza virus A/New York/348/2003 (H1N1) |  |  | 165 | 0.1 µg/mL |  |
| AGALASCMGLIYNRMGA |  |  |  |  | HLA allele this work (HLA restriction by ELISpot) [3]: — |
| PB2 434-450 peptide of influenza virus A/New York/348/2003 (H1N1) | 444 | 0.1 µg/mL |  |  |  |
| M1 181-197 peptide of influenza virus A/New York/348/2003 (H1N1) |  |  | 115 | 1 µg/mL |  |
| PB2 42-58 peptide of influenza virus A/New York/348/2003 (H1N1) |  |  | 166 | 0.1 µg/mL |  |
| PB1 31-47 peptide of influenza virus A/New York/348/2003 (H1N1) |  |  | 106 | 0.1 µg/mL |  |
| PB1 126-142 peptide of influenza virus A/New York/348/2003 (H1N1) | 78 | 0.1 µg/mL |  |  |  |
| PB1 554-570 peptide of influenza virus A/New York/348/2003 (H1N1) | 166 | 0.1 µg/mL | 76 | 0.1 µg/mL |  |
| KTGGPIYKRVDGKWVRE |  |  |  |  | HLA allele this work (HLA restriction by ELISpot) [3]: DR3 |
| PB2 126-142 peptide of influenza virus A/New York/348/2003 (H1N1) |  |  | 316 | 0.1 µg/mL |  |
| PB1 507-523 peptide of influenza virus A/New York/348/2003 (H1N1) |  |  | 274 | 0.1 µg/mL |  |
| NP 109-125 peptide of influenza virus A/New York/348/2003 (H1N1) | 501 | 0.1 µg/mL |  |  |  |
| PB1 656-672 peptide of influenza virus A/New York/348/2003 (H1N1) |  |  | 59 | 0.1 µg/mL |  |
| PA 126-142 peptide of influenza virus A/New York/348/2003 (H1N1) |  |  | 37 | 0.1 µg/mL |  |
| PB2 54-70 peptide of influenza virus A/New York/348/2003 (H1N1) | 499 | 0.1 µg/mL |  |  |  |
| PB2 458-474 peptide of influenza virus A/New York/348/2003 (H1N1) |  |  | 238 | 0.1 µg/mL |  |
| PB2 369-385 peptide of influenza virus A/New York/348/2003 (H1N1) |  |  | 54 | 0.1 µg/mL |  |

| Substance | IFN-γ ELISpot at 10 µg/ml peptide, splenocytes of immunized HLA transgenic mice [1] | lowest concentration of peptide giving positive ELISpot response [1] | IFN-γ ELISpot at 10 µg/ml peptide, splenocytes of immunized HLA transgenic mice [2] | lowest concentration of peptide giving positive ELISpot response [2] | further results |
| --- | --- | --- | --- | --- | --- |
| M1 169-185 peptide of influenza virus A/New York/348/2003 (H1N1) | 120 | 0.1 µg/mL |  |  |  |
| TQIQTRRSFEIKKLWDQ |  |  |  |  | HLA allele this work (HLA restriction by ELISpot) [3]: — |
| NP 103-119 peptide of influenza virus A/New York/348/2003 (H1N1) | 614 | 0.1 µg/mL |  |  |  |
| PB1 37-53 peptide of influenza virus A/New York/348/2003 (H1N1) |  |  | 125 | 0.1 µg/mL |  |
| NP 7-23 peptide of influenza virus A/New York/348/2003 (H1N1) |  |  | 52 | 0.1 µg/mL |  |
| PB2 464-480 peptide of influenza virus A/New York/348/2003 (H1N1) | 324 | 0.1 µg/mL |  |  |  |
| PB1 471-487 peptide of influenza virus A/New York/348/2003 (H1N1) | 116 | 0.1 µg/mL |  |  |  |
| FVANFSMELPSFGVSGV |  |  |  |  | HLA allele this work (HLA restriction by ELISpot) [3]: — |
| PB1 120-136 peptide of influenza virus A/New York/348/2003 (H1N1) | 142 | 0.1 µg/mL |  |  |  |
| NKMARLGKGYMFESKSM |  |  |  |  | HLA allele this work (HLA restriction by ELISpot) [3]: — |
| MSLLTEVETYVLSIVPS |  |  |  |  | HLA allele this work (HLA restriction by ELISpot) [3]: — |
| PA 558-574 peptide of influenza virus A/New York/348/2003 (H1N1) |  |  | 114 | 0.1 µg/mL |  |
| MDVNPTLLFLKVPAQNA |  |  |  |  | HLA allele this work (HLA restriction by ELISpot) [3]: — |
| PB2 132-148 peptide of influenza virus A/New York/348/2003 (H1N1) |  |  | 311 | 0.1 µg/mL |  |
| NP 408-424 peptide of influenza virus A/New York/348/2003 (H1N1) | 41 | 10 µg/mL |  |  |  |
| PA 132-148 peptide of influenza virus A/New York/348/2003 (H1N1) |  |  | 41 | 0.1 µg/mL |  |
| PB2 48-64 peptide of influenza virus A/New York/348/2003 (H1N1) |  |  | 161 | 0.1 µg/mL |  |
| PB1 680-696 peptide of influenza virus A/New York/348/2003 (H1N1) | 181 |  |  |  |  |
| TEKLTITYSSSMMWEIN |  |  |  |  | B7: average IFN-γ spots forming cells per million splenocytes [4]: —; A24: average IFN-γ spots forming cells per million splenocytes [5]: —; DR2: average IFN-γ spots forming cells per million splenocytes [6]: 151 ± 67(0.1) IFN-γ spots forming cells per million splenocytes; DR2: lowest concentration of peptide giving positive ELISpot response in peptide titration [6]: 151 ± 67(0.1) μg/ml; DR3: average IFN-γ spots forming cells per million splenocytes [7]: —; DR4: average IFN-γ spots forming cells per million splenocytes [8]: — |
| RMIGGIGRFYIQMCTEL |  |  |  |  | B7: average IFN-γ spots forming cells per million splenocytes [4]: —; A24: average IFN-γ spots forming cells per million splenocytes [5]: 45 ± 5 IFN-γ spots forming cells per million splenocytes; A24: lowest concentration of peptide giving positive ELISpot response in peptide titration [5]: (0.1) μg/ml; DR2: average IFN-γ spots forming cells per million splenocytes [6]: —; DR3: average IFN-γ spots forming cells per million splenocytes [7]: —; DR4: average IFN-γ spots forming cells per million splenocytes [8]: — |
| IGVTVIKNNMINNDLGP |  |  |  |  | B7: average IFN-γ spots forming cells per million splenocytes [4]: —; A24: average IFN-γ spots forming cells per million splenocytes [5]: —; DR2: average IFN-γ spots forming cells per million splenocytes [6]: 159 ± 53(0.1) IFN-γ spots forming cells per million splenocytes; DR2: lowest concentration of peptide giving positive ELISpot response in peptide titration [6]: 159 ± 53(0.1) μg/ml; DR3: average IFN-γ spots forming cells per million splenocytes [7]: —; DR4: average IFN-γ spots forming cells per million splenocytes [8]: — |
| RFYRTCKLLGINMSKKK |  |  |  |  | B7: average IFN-γ spots forming cells per million splenocytes [4]: —; A24: average IFN-γ spots forming cells per million splenocytes [5]: —; DR2: average IFN-γ spots forming cells per million splenocytes [6]: 231 ± 73(1) IFN-γ spots forming cells per million splenocytes; DR2: lowest concentration of peptide giving positive ELISpot response in peptide titration [6]: 231 ± 73(1) μg/ml; DR3: average IFN-γ spots forming cells per million splenocytes [7]: —; DR4: average IFN-γ spots forming cells per million splenocytes [8]: — |
